Test results reported in paper doi:10.1101/2023.12.01.569227 (bioRxiv, 2023).
Substitutions are numbered along the chain they refer to.

Biological target: SARS-CoV-2 RBD (SARS-CoV-2, Wuhan-Hu-1, UniProt P0DTC2, biotinylated with an EZ-Link NHS-PEG4 biotinylation kit)
Experiment: BLI

B1: Seq8 (VHH)
VHH: QVQLQESGGGLVQAGGSLRLSCAASGYGFSEYAMGWFRQAPGKEREFVATISWSGRSTYYTDSVKGRFTISRDNAKNTVYLQMNSLKPDDTAVYYCARAGWGVVVSEWDYDYDYWGQGTQVTVSS
fold improvement in binding affinity over VHH-72: > 2 fold

B2: Seq7 (VHH)
VHH: B1 VHH with Y27L, G28K, Y32T, W101Y
fold improvement in binding affinity over VHH-72: > 2 fold

B3: Seq12 (VHH)
VHH: B1 VHH with Y27R, G28T, R56G, T58K, R98A, W101L, V103T
binding result: binds

B4: Seq6 (VHH)
VHH: B1 VHH with Y27R, G28L, R98K
fold improvement in binding affinity over VHH-72: > 2 fold

B5: Seq4 (VHH)
VHH: B1 VHH with Y27R, G28S, S57A, W101Y
fold improvement in binding affinity over VHH-72: > 2 fold

B6: Seq3 (VHH)
VHH: B1 VHH with Y27R, G28M, Y32T, S57G, R98G, W101Y, V104Y
fold improvement in binding affinity over VHH-72: > 2 fold

B7: Seq1 (VHH)
VHH: B1 VHH with Y27R, G28T, Y32T, S57G, R98Y, W101Y
fold improvement in binding affinity over VHH-72: > 2 fold

B8: Seq11 (VHH)
VHH: B1 VHH with Y27R, G28K, S57L, R98G, W101Y
fold improvement in binding affinity over VHH-72: > 2 fold

B9: Seq2 (VHH)
VHH: B1 VHH with Y27R, R56G, S57G, W101F, V104W
fold improvement in binding affinity over VHH-72: > 2 fold

B10: Seq5 (VHH)
VHH: B1 VHH with Y27R, G28M, R56K, S57G, W101F, V104Y
fold improvement in binding affinity over VHH-72: > 2 fold
